Where a chain is given by its changes, count along the chain named.
Experiments:
[1] = molecular target: CCL13_HUMAN (Homo sapiens, UniProt Q99616); assay: Biolayer interferometry (BLI) binding
Experimental: (§1) Table 1. Tick CKBPs described in PCT/GB2017/050563 and [17]. Tick peptide sequences isolated in yeast surface display fluorescent-activated cell sorting (FACS) screens using a labelled chemokine. Identity with Evasin-1, 4 or 3 was calculated using BLAST. Abbreviations: IXORI—Ixodes ricinus, RHISA—Rhipicephalus sanguineus, AMBMA—Amblyomma maculatum, AMBPA—Amblyomma parvum, AMBTR—Amblyomma triste, AMBAM—Amblyomma americanum, AMBCA—Amblyomma cajennense, RHIPU—Rhipicephalus pulchellus. Table 2A-C. Binding characteristics of tick CKBPs previously disclosed (PCT/GB2017/050563 and [17]). All members of the human chemokine family[164] are listed in column 1. Binding to human chemokines was determined for 14 tick CKBPs using biolayer interferometry (BLI) with calculated Kd shown as Molar (Moles/Litre). Binding data for 17 other novel tick CKBPs was assayed using yeast surface display[17,166],with positive binding results shown as “YES”. For biolayer interferometry, His-tagged purified tick CKBP was bound to a Ni-NINTA sensor on an OctetRed® 384 system, and then binding to each chemokine listed (with the exception of CCL25, CCL26, CXCL16, CXCL17, CXCL4L1, XCL2) was assayed in a cross-binding screen at a chemokine concentration of 300 nM as described. For those chemokines showing binding to a tick CKBP in the cross-binding screen, binding assays were repeated using different doses of chemokine. Association, equilibrium and dissociation data were analysed using Octet software to create corresponding fitted curves, and used to calculate Kd. For yeast surface display, (YSD) background fluorescence was controlled for by using either an empty vector or by omitting the chemokine (i.e. using streptavidin-Alexa647 alone). An arbitrary threshold of >3 fold over background mean fluorescence intensity was chosen to describe confirmed re-tests. Where binding was detected data are indicated as “YES”. […] For yeast surface display data, empty cells represent chemokines that were not tested. Binding data published in relation to previously described tick CKBPs (Evasins-1, 4 and 3) is also shown for comparison in each of FIGS. 2A-C, with the relevant data obtained from publications: [20-22,32]. Table 3: Neutralisation of human chemokines by tick CKBPs previously disclosed (PCT/GB2017/050563 and [17]). Neutralising activity was determined using a quantitative THP1 cell migration assay in a 96-well Boyden chamber with chemokine in the bottom chamber as described. Cells migrating through to the bottom chamber at 4 hours were counted using flow cytometry in a 96 well plate format. IC50 for neutralisation was determined at the chemokine EC80 dose as determined using a range of tick CKBP concentrations. Data was analysed using GraphPad Prism to determine IC50, which is shown as Molar (Moles/Litre). Empty cells represent experiments not done. Table 4—Other previously described tick CKBPs. Tick CKBPs that were also described in PCT/GB2017/050563 and Singh et al. are indicated in “Notes”. Table 5.—Novel tick CKBPs of the invention. Table 6. […] The peptide sequence prefix indicates the identity, and suffix indicate the tick species as follows: AMBCA, Amblyomma cajennense and IXORI, Ixodes ricinus. […] Certain tick peptides e.g. P1074_IXORI were recovered from screens performed with more than one chemokine. Individual yeast clones recovered from the library were re-tested using a FACS (fluorescence activated cell sorting), experiment. The binding of the peptide to the chemokine was assayed by measuring the percent (%), of yeast cells expressing the given peptide that exceeded a background threshold set by measuring the fluorescence of the yeast library pool treated with streptavidin-[…] alone. When more than one independent yeast clone was isolated for a given peptide-chemokine combination, the mean percent shift was calculated and reported in column 3. […]

[2] = molecular target: T1, CCL4_HUMAN (Homo sapiens, UniProt P13236); assay: Biolayer interferometry (BLI) binding
T1 sequence (P13236 24-92): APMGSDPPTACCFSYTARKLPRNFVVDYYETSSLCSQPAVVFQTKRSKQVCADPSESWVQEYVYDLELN
Experimental: as §1

[3] = molecular target: CCL11_HUMAN (Homo sapiens, UniProt P51671); assay: Biolayer interferometry (BLI) binding
Sequence of CCL11_HUMAN (P51671 24-97): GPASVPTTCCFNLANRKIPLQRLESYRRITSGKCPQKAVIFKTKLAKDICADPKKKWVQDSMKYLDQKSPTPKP
Experimental: as §1

[4] = molecular target: T2, CCL3_HUMAN (Homo sapiens, UniProt P10147); assay: Biolayer interferometry (BLI) binding
T2 sequence (P10147 24-92): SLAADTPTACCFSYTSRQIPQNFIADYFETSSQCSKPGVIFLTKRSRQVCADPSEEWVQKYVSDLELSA
Experimental: as §1

[5] = molecular target: T3, CCL8_HUMAN (Homo sapiens, UniProt P80075); assay: Biolayer interferometry (BLI) binding; details: read-out: Kd, CCL8_HUMAN
T3 sequence (P80075 24-99): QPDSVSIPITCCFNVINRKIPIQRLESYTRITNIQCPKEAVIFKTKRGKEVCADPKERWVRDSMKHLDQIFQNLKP
Experimental: as §1

[6] = molecular target: CCL7_HUMAN (Homo sapiens, UniProt P80098); assay: Biolayer interferometry (BLI) binding
Sequence of CCL7_HUMAN (P80098 24-99): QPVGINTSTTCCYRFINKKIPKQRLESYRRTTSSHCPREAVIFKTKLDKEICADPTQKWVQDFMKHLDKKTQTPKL
Experimental: as §1

[7] = molecular target: T4, CCL4L1_HUMAN (Homo sapiens, UniProt Q8NHW4); assay: Biolayer interferometry (BLI) binding
T4 sequence (Q8NHW4 24-92): T1 sequence (P13236 24-92) with S47G
Experimental: as §1

[8] = molecular target: T5, CCL14_HUMAN (Homo sapiens, UniProt Q16627); assay: Biolayer interferometry (BLI) binding
T5 sequence (Q16627 20-93): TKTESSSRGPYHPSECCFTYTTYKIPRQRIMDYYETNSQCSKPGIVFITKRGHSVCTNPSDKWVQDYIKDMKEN
Experimental: as §1

[9] = molecular target: CCL3L1_HUMAN (Homo sapiens, UniProt P16619); assay: Biolayer interferometry (BLI) binding
Sequence of CCL3L1_HUMAN (P16619 24-93): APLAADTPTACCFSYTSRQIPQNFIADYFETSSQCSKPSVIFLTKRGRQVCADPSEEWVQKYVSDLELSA
Experimental: as §1

[10] = molecular target: T6, CCL18_HUMAN (Homo sapiens, UniProt P55774); assay: Biolayer interferometry (BLI) binding
T6 sequence (P55774 21-89): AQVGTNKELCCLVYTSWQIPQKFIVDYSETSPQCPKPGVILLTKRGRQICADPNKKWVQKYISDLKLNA
Experimental: as §1

[11] = molecular target: CCL2_HUMAN (Homo sapiens, UniProt P13500); assay: Biolayer interferometry (BLI) binding
Sequence of CCL2_HUMAN (P13500 24-99): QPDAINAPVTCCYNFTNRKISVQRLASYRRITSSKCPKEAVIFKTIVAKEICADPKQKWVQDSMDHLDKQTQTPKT
Experimental: as §1

[12] = molecular target: T7, CXCL10_HUMAN (Homo sapiens, UniProt P02778); assay: Yeast surface display (YSD) FACS binding; details: yeast surface display
T7 sequence (P02778 22-98): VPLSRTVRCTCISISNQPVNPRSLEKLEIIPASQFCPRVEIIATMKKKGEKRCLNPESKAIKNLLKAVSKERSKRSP
Experimental: as §1

[13] = molecular target: T8, CCL5_HUMAN (Homo sapiens, UniProt P13501); assay: Yeast surface display (YSD) FACS binding
T8 sequence (P13501 24-91): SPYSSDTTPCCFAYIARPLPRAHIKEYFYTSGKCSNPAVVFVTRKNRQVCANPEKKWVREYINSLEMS
Experimental: as §1

[14] = molecular target: T9, CXCL8_HUMAN (Homo sapiens, UniProt P10145); assay: Yeast surface display (YSD) FACS binding; design: label (chemical); details: FACS re-test; mean percent shift where several clones
T9 sequence (P10145 21-99): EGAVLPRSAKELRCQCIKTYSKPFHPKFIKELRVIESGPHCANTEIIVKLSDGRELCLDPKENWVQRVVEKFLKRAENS
Experimental: as §1

Sequence of CCL13_HUMAN (Q99616 17-98): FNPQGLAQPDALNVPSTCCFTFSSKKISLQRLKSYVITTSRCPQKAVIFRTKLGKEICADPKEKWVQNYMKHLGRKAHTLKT

B1: P1180_AMBTR: tick CKBP, Amblyomma triste (protein)
chain: EEPKDGYDYTEGCPFVVLGNGTHAKPAGCSHLCNGAPETLDDNMECYNVTEEVAKRMTPDIPYTCWLGWCSKGECKRDNRTEVCYRGSERE
modifications: Amblyomma triste
[1]
  Kd: 9 nM
[2]
  Kd: 66 nM
[3]
  Kd: 33 nM
[4]
  Kd: 1.1 nM
[5]
  Kd: 3.6 nM
[6]
  Kd: 98 nM
[7]
  Kd: 20 nM
[8]
  Kd: 4.4 nM
[9]
  Kd: 2.2 nM
[10]
  Kd: 5.8 nM
[11]
  Kd: 53 nM

B2: P1181_AMBMA: tick CKBP, Amblyomma maculatum (protein, listed as Amblyomma maculatum)
chain: EEREDDNDYGGGCPFVVLGNGTHAKPAGCSHLCNGAPETLDNIECYNVTEEVAKRMTPDIPYTCWLGWCSKGECKRDNRTEVCYRGSERE
[1]
  Kd: 19 nM
[2]
  Kd: 53 nM
[3]
  Kd: 20 nM
[4]
  Kd: 2.2 nM
[5]
  Kd: 14 nM
[6]
  Kd: 120 nM
[7]
  Kd: 35 nM
[8]
  Kd: 47 nM
[9]
  Kd: 3.3 nM
[10]
  Kd: 10 nM
[11]
  Kd: 74 nM

B3: P1182_AMBMA: tick CKBP, Amblyomma maculatum (protein, listed as Amblyomma maculatum)
chain: EPKDDNDYGGGCPFVVLGNGTHAKPAGCSHLCNGAPETLDNIECYNVTEEVAKRMTPGIPYACWLGWCNKGECKRGNRTEVCYRGSEEE
[1]
  Kd: 56 nM
[2]
  Kd: 63 nM
[3]
  Kd: 28 nM
[4]
  Kd: 5.4 nM
[5]
  Kd: 29 nM
[7]
  Kd: 92 nM
[8]
  Kd: 50 nM
[9]
  Kd: 9.5 nM
[10]
  Kd: 33 nM
[11]
  Kd: 74 nM

B4: P1283_IXORI: tick CKBP, Ixodes ricinus (protein, listed as Ixodes ricinus)
chain: KEPEDTTLPPGALVDSPDSDNCSSPHLPYFDETTNMWMGFLAVNCTKKCPVGKHVTVVDGNKCIGTWSFLDELTITVLVGSCKDGFCETDGSSECRNITLAEEDSQEEEGAAAEEEDEEDEEDEEEEEAEEEREDDHDDA
[12]
  Binding to CXCL10_HUMAN, YSD: YES (An arbitrary threshold of >3 fold over background mean fluorescence intensity was chosen to describe confirmed re-tests. Where binding was detected data are indicated as “YES”)

B5: P1219_IXORI: tick CKBP, Ixodes ricinus (protein, listed as Ixodes ricinus)
chain: ASLAKETEDTTLPARALVDSPDSDNCSSPQLPYFDELTYMPLGFLAVNCTKTCPVGKNGTVVNGNKCIVTWSILDVSTITVLVGSCKNGYCISDGSSECRNITLAGEDSQEEEEEAEEDEEEDDGDEEEDEEEDEEENDDD
[12]
  Binding to CXCL10_HUMAN, YSD: YES (An arbitrary threshold of >3 fold over background mean fluorescence intensity was chosen to describe confirmed re-tests. Where binding was detected data are indicated as “YES”)

B6: P1224_IXORI: tick CKBP, Ixodes ricinus (protein, listed as Ixodes ricinus)
chain: SDLCKMEAESSPFKLPQSSLLDAPDEEGCKYQLLFVEAEGPLVVNCTKDCPNGKIRTVVEGELCIAMVKTSSSGEATGLVGSCKRGSCVKKDDPCRTFTLSEEGDDDEEDEEEEEDEEEDEEEDEEEEEEDEEEED
[12]
  Binding to CXCL10_HUMAN, YSD: YES (An arbitrary threshold of >3 fold over background mean fluorescence intensity was chosen to describe confirmed re-tests. Where binding was detected data are indicated as “YES”)

B7: P1063_AMBTR: tick CKBP, Amblyomma triste (protein)
chain: QSEVGKNVPGCGDTETLEAPPQEKPPYYEYKDEEGCTQKVLESWFQAGERSTGRGQKKRGHGRRPSRVLRTVDCRKNCTVGITALPDGHLCLVPRGDPFTRGGAIKYGCYLGDCASGHCQHRYETVSCRLPAPDTTAKPYYVTPEK
modifications: Amblyomma triste
[13]
  Binding to CCL5_HUMAN, YSD: YES (An arbitrary threshold of >3 fold over background mean fluorescence intensity was chosen to describe confirmed re-tests. Where binding was detected data are indicated as “YES”)

B8: P1127_IXORI: novel CXC-binding tick CKBP, Ixodes ricinus (protein, listed as Ixodes ricinus)
chain: AGKDDEHFSVDYCGMNCTQQEDGSWTACSGRNGECRCYHESGKRSGLCLSTTYIDFSEYGNLSDSDIAAASPRLSMKESH
[14]
  Chemokines bound in yeast surface display and % cells over threshold fluorescence: CXCL8_HUMAN: CXCL8_HUMAN 43%

B9: P1128_IXORI: novel CXC-binding tick CKBP, Ixodes ricinus (protein, listed as Ixodes ricinus)
chain: KDDEHFSVDYCGMNCTQQEDGSWTACSGRNEECRCYHESGKKNGLCLSTTYIDFSQYGNPSDSDIAAASPRP
[14]
  Chemokines bound in yeast surface display and % cells over threshold fluorescence: CXCL8_HUMAN: CXCL8_HUMAN 53%

B10: P1170_IXORI: novel CXC-binding tick CKBP, Ixodes ricinus (protein, listed as Ixodes ricinus)
chain: LGDEDQLFSVEYCGTNCTQQDDGKWTPCSGKNGKCKCYHEDGKRYGLCLYTEYTDFSQYPNPEGSEIENTRPRP
[14]
  Chemokines bound in yeast surface display and % cells over threshold fluorescence: CXCL8_HUMAN: CXCL8_HUMAN 81%

B11: P1174_IXORI: novel CXC-binding tick CKBP, Ixodes ricinus (protein, listed as Ixodes ricinus)
chain: LNNENELFSVEYCGANCTQQDNGSWTKCKGNCTCYHEDGKRYGLCLSTEYTDFTQFPKPTSEEIADASPRPKETNSH
[14]
  Chemokines bound in yeast surface display and % cells over threshold fluorescence: CXCL8_HUMAN: CXCL8_HUMAN 29%
